Data from PMC4176178, “An evolutionarily conserved interaction of tumor suppressor protein Pdcd4 with the poly(A)-binding protein contributes to translation suppression by Pdcd4” (Nucleic Acids Research, 2014).

T1: GST-Pdcd4 (full-length human Pdcd4 fused to GST) (human, UniProt Q53EL6 1-469)
T1 construct: programmed cell death 4 (Pdcd4), human, full length; also called GST-Pdcd4-wt; pGex-6P2-hPdcd4wt; source: purified
T1 sequence (looked up): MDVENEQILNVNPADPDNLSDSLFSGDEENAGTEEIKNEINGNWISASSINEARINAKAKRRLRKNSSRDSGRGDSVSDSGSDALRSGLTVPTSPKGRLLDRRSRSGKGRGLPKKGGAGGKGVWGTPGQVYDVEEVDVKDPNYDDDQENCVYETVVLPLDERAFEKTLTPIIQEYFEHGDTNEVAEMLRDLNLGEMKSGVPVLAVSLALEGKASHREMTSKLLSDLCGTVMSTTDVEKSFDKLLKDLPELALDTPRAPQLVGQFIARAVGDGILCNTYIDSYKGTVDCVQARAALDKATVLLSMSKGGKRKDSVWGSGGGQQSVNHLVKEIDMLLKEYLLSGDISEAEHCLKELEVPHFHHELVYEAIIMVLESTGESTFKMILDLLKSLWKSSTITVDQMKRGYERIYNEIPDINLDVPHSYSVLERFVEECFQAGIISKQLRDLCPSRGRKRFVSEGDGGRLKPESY

B1: GST-Pdcd4-RBDstop (only the N-terminal RNA-binding domain of human Pdcd4) (domain or fragment, UniProt Q53EL6 1-154, looked up)
chain: MDVENEQILNVNPADPDNLSDSLFSGDEENAGTEEIKNEINGNWISASSINEARINAKAKRRLRKNSSRDSGRGDSVSDSGSDALRSGLTVPTSPKGRLLDRRSRSGKGRGLPKKGGAGGKGVWGTPGQVYDVEEVDVKDPNYDDDQENCVYET
notes: translation stop codon introduced at amino acid position 155; The last residue 154 follows from the stop codon at position 155; also called pGex-6P2-hPdcd4-RBDstop; source: purified
B2: mouse His-PABP-RRM1–4 (amino acids 1–375) (domain or fragment, UniProt P29341 1-375, looked up)
chain: MNPSAPSYPMASLYVGDLHPDVTEAMLYEKFSPAGPILSIRVCRDMITRRSLGYAYVNFQQPADAERALDTMNFDVIKGKPVRIMWSQRDPSLRKSGVGNIFIKNLDKSIDNKALYDTFSAFGNILSCKVVCDENGSKGYGFVHFETQEAAERAIEKMNGMLLNDRKVFVGRFKSRKEREAELGARAKEFTNVYIKNFGEDMDDERLKELFGKFGPALSVKVMTDESGKSKGFGFVSFERHEDAQKAVDEMNGKELNGKQIYVGRAQKKVERQTELKRKFEQMKQDRITRYQGVNLYVKNLDDGIDDERLRKEFSPFGTITSAKVMMEGGRSKGFGFVCFSSPEEATKAVTEMNGRIVATKPLYVALAQRKEERQ
notes: Vector was a gift from Lorna Waters; source: bacterially expressed, purified (Ni-NTA)

Columns and labels:
[1] = biological target: B2; test: pull-down; GST fusion protein-loaded sepharose beads incubated with purified, bacterially expressed His-PABP-RRM1–4; western blotting with PABP antibodies or Coomassie staining; also in the absence or presence of 0.5 μg/ml RNase A; conditions: both partners purified
[2] = biological target: T1, GST-Pdcd4 (full-length human Pdcd4 …); test: as above; conditions: both partners purified

| binding result [1] | binding result [2] | Binder |
| --- | --- | --- |
| binds | – | B1 |
| – | binds | B2 |
